{
  "source": "patent US10155811B2",
  "about": "“APLNR modulators and uses thereof” (Regeneron Pharmaceuticals, Inc., priority 2013, dated 2018)",
  "molecules": {"B1": {"name": "H4H9104P: anti-APLNR antibody, HCVR/LCVR SEQ ID NO: 178/186, human IgG4 Fc (antibody, V domains shown)", "VH": "QVQLVESGGDLVKPGGSLRLSCAASGFTFSDYYMNWIRQAPGKGLEWVSYISSSGSTIHYADSVKGRFTISRDNAKNLVYLRMNSLRAEDTAVYFCAREREVHDYSDPYFFFYGMDVWGQGTTVTVSS", "VL": "DIQMTQSPSSVSASVGDRVTITCRASQDVSSWLAWYQHKPGKAPKLLIFAASSLQSGVPSRFSGSGSGTDFTLTISSLQSEDFATYYCQQANSFPLTFGGGTKVEIK", "modifications": "human IgG4 Fc"}, "B2": {"name": "H4H9103P: anti-APLNR antibody, HCVR/LCVR SEQ ID NO: 162/170, human IgG4 Fc (antibody, V domains shown)", "VH": "EVQLVESGGGLVQPGRSLRLSCAASGFTFDDYAMHWVRQVPGKGLEWVSGITWNSGDIGYADSVKGRFTISRDNAKNSLYLQMNSLRAEDTALYYCTKDKDSSGYYGIDVWGQGTTVTVSS", "VL": "DIQMTQSPSSVSASVGDRVTITCRASQGIRTWLAWYQQKPGKAPKLLIYAASSLQSGVPSRFSGSESGTDFTLTISSLQPEDFATYYCQQANSFPFTFGPGTKVDIK", "modifications": "human IgG4 Fc"}, "B3": {"name": "H4H9101P: anti-APLNR antibody, HCVR/LCVR SEQ ID NO: 146/154, human IgG4 Fc (antibody, V domains shown)", "VH": "QVQLVQSGAEVKKPGASVEVSCKASGYTFTDYYIHWIRQAPGQGLEWMGWINPDSGRTNYAQKFQVRVTMTRDTSITTAYMELNRLKSDDTAVYYCARGPLRGYSGYDFFDYWGQGTLVTVSS", "VL": "DIQLTQSPSFLSASVGDRVTITCWASQGISSYLAWYQQKPGKAPKLLIYAASTLQSGVPSRFSGSGSGTEFTLTISSLQPEDFASYFCQQLNSNPRTFGQGTKVEIK", "modifications": "human IgG4 Fc"}, "B4": {"name": "H4H9112P: anti-APLNR antibody, HCVR/LCVR SEQ ID NO: 194/202, human IgG4 Fc (antibody, V domains shown)", "VH": "B3 VH", "VL": "DIQMTQSPSSLSAFVGDRVTITCRASQSISSYLNWYQQKPGKAPKLLIYTASTLQRGVPSRFRGSGSGTDFTLTISSLQPEDFATYYCHQTYSIPITFGQGTRLEIK", "modifications": "human IgG4 Fc"}, "B5": {"name": "H4H9113P: anti-APLNR antibody, HCVR/LCVR SEQ ID NO: 210/218, human IgG4 Fc (antibody, V domains shown)", "VH": "B3 VH", "VL": "DIQMTQSPSSLSASVGDRVTITCRASQGIRNDLGWYQQKPGKAPNRLIYAASSLQSGVPSRFSGSGSGTEFTLTISSLHPEDFATYSCLQHNSFPLTFGGGTKVEIK", "modifications": "human IgG4 Fc"}},
  "data": [
    {"target": "T1, hAPLNR (Homo sapiens, UniProt P35414)", "T1 sequence (P35414 1-380)": "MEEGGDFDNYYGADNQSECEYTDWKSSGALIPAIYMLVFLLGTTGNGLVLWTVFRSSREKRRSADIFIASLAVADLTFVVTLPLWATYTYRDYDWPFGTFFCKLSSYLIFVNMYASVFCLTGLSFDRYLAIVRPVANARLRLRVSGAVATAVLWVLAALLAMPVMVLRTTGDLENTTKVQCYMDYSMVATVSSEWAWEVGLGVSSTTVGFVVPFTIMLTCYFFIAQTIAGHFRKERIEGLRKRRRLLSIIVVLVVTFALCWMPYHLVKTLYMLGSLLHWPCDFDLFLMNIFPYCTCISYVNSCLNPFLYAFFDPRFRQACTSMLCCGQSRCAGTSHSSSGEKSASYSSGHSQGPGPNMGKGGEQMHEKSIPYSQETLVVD", "assay": "CRE-luciferase cyclic AMP assay, inhibition of hAPLNR in the presence of 100 ρM Apelin in HEK293/CRE-luc/hAPLNR cells", "assay_type": "cell-based", "parameters": "expressed in transfected cells", "details": "Table 6D", "method": "(§1) The resulting cell line, HEK293/CRE-luc/hAPLNR, was maintained in DMEM containing 10% FBS, NEAA, pencillin/streptomycin, and 100 μg/mL Hygromycin B.\n(§2) Testing of antibodies included a no antibody control.\n(§3) The results of all assays were analyzed using nonlinear regression (4-parameter logistics) within Prism 5 software (GraphPad).", "values": [
      {"molecule": "B1", "% Inhibition at 100 nM antibody, in the presence of 100 ρM Apelin (at 5 μM Forskolin)": "No Inhibition"},
      {"molecule": "B2", "% Inhibition at 100 nM antibody, in the presence of 100 ρM Apelin (at 5 μM Forskolin)": "No Inhibition"},
      {"molecule": "B3", "% Inhibition at 100 nM antibody, in the presence of 100 ρM Apelin (at 5 μM Forskolin)": "No Inhibition"},
      {"molecule": "B4", "% Inhibition at 100 nM antibody, in the presence of 100 ρM Apelin (at 5 μM Forskolin)": "No Inhibition"},
      {"molecule": "B5", "% Inhibition at 100 nM antibody, in the presence of 100 ρM Apelin (at 5 μM Forskolin)": "No Inhibition"}
    ]},
    {"target": "T1, hAPLNR", "assay": "CRE-luciferase cyclic AMP assay, inhibition of hAPLNR in the presence of 100 ρM Apelin in HEK293/CRE-luc/hAPLNR cells", "assay_type": "cell-based", "parameters": "expressed in transfected cells", "details": "unmodified anti-APLNR antibodies", "method": "as §1, §2, §3", "values": [
      {"molecule": "B1", "inhibition (maximum blockade) of 100 ρM Apelin activation": "did not demonstrate any measurable blockade"},
      {"molecule": "B2", "inhibition (maximum blockade) of 100 ρM Apelin activation": "did not demonstrate any measurable blockade"},
      {"molecule": "B3", "inhibition (maximum blockade) of 100 ρM Apelin activation": "did not demonstrate any measurable blockade"},
      {"molecule": "B4", "inhibition (maximum blockade) of 100 ρM Apelin activation": "did not demonstrate any measurable blockade"},
      {"molecule": "B5", "inhibition (maximum blockade) of 100 ρM Apelin activation": "did not demonstrate any measurable blockade"}
    ]},
    {"target": "T1, hAPLNR", "assay": "CRE-luciferase cyclic AMP assay, activation of hAPLNR (inhibition of Forskolin-induced cAMP) in HEK293/CRE-luc/hAPLNR cells", "assay_type": "cell-based", "parameters": "expressed in transfected cells", "details": "Table 6A; without Apelin; % of maximum Apelin activation", "method": "The ability of anti-APLNR antibodies to activate hAPLNR-mediated cell signaling was measured using a cyclic AMP assay. The hAPLNR is a 7-transmembrane G-protein coupled receptor (GPCR).\nas §1, §2, §3", "values": [
      {"molecule": "B1", "% Activation at 100 nM mAb (at 5 uM Forskolin)": "No Activation"},
      {"molecule": "B2", "% Activation at 100 nM mAb (at 5 uM Forskolin)": "No Activation"},
      {"molecule": "B3", "% Activation at 100 nM mAb (at 5 uM Forskolin)": "No Activation"},
      {"molecule": "B4", "% Activation at 100 nM mAb (at 5 uM Forskolin)": "No Activation"},
      {"molecule": "B5", "% Activation at 100 nM mAb (at 5 uM Forskolin)": "No Activation"}
    ]}
  ]
}
